According to article PMC2994652 (Biochemistry, 2010):
Several values for one entry are separate records, joined by “and”; a condition that tells them apart may be missing. Equal values may be shown once. Read-outs that look alike come from different tables or passages of the source. Each block holds one molecule with its values, some of them ahead of it.

Tests used:
Assay in all cases: SEC
[1] = biological target: yeast Cox11-Trx (fusion of the extramembrane domain of yeast Cox11 with E. coli thioredoxin) (yeast)
[2] = biological target: the molecule itself
[3] = biological target: the molecule itself; remark: listed apart in the source

stoichiometry N [1]: 2 and 4
Molecule: yeast Cox11-Trx (fusion of the extramembrane domain of yeast Cox11 with E. coli thioredoxin) (domain or fragment)

B1: C35S Cox11-Trx (domain or fragment, Rhodobacter sphaeroides, UniProt P56940 32-191, looked up)
chain: NWFSRVTGFAGTTAVATEAPAEVLDRTVKVRFDASREAGMPWEFRPLQREMKLKIGETGLAFYEAYNPTDRTVAGTASYNVTPDAAGGYFAKIACFCFTEQVLAPGERVEMPVTFYVDPAIIDDPDGRYVRQITLSYTFHETALTEEQAALAAESATDVN
stoichiometry N [2]: 2 and 4

B2: K123L-E131K Cox11-Trx (domain or fragment, Rhodobacter sphaeroides, UniProt P56940 32-191, looked up)
chain: NWFCRVTGFAGTTAVATEAPAEVLDRTVKVRFDASREAGMPWEFRPLQREMKLKIGETGLAFYEAYNPTDRTVAGTASYNVTPDAAGGYFALIACFCFTKQVLAPGERVEMPVTFYVDPAIIDDPDGRYVRQITLSYTFHETALTEEQAALAAESATDVN
stoichiometry N [2]: 2
stoichiometry N [3]: 4

B3: C35S-C126A-C128A Cox11-Trx (domain or fragment, Rhodobacter sphaeroides, UniProt P56940 32-191, looked up)
chain: NWFSRVTGFAGTTAVATEAPAEVLDRTVKVRFDASREAGMPWEFRPLQREMKLKIGETGLAFYEAYNPTDRTVAGTASYNVTPDAAGGYFAKIAAFAFTEQVLAPGERVEMPVTFYVDPAIIDDPDGRYVRQITLSYTFHETALTEEQAALAAESATDVN
stoichiometry N [3]: 4

B4: F129Y Cox11-Trx (domain or fragment, Rhodobacter sphaeroides, UniProt P56940 32-191, looked up)
chain: NWFCRVTGFAGTTAVATEAPAEVLDRTVKVRFDASREAGMPWEFRPLQREMKLKIGETGLAFYEAYNPTDRTVAGTASYNVTPDAAGGYFAKIACFCYTEQVLAPGERVEMPVTFYVDPAIIDDPDGRYVRQITLSYTFHETALTEEQAALAAESATDVN
stoichiometry N [3]: 4

B5: E131K Cox11-Trx (domain or fragment, Rhodobacter sphaeroides, UniProt P56940 32-191, looked up)
chain: NWFCRVTGFAGTTAVATEAPAEVLDRTVKVRFDASREAGMPWEFRPLQREMKLKIGETGLAFYEAYNPTDRTVAGTASYNVTPDAAGGYFAKIACFCFTKQVLAPGERVEMPVTFYVDPAIIDDPDGRYVRQITLSYTFHETALTEEQAALAAESATDVN
stoichiometry N [3]: 4

B6: C126A Cox11-Trx (domain or fragment, Rhodobacter sphaeroides, UniProt P56940 32-191, looked up)
chain: NWFCRVTGFAGTTAVATEAPAEVLDRTVKVRFDASREAGMPWEFRPLQREMKLKIGETGLAFYEAYNPTDRTVAGTASYNVTPDAAGGYFAKIAAFCFTEQVLAPGERVEMPVTFYVDPAIIDDPDGRYVRQITLSYTFHETALTEEQAALAAESATDVN
stoichiometry N [3]: 4

B7: K123E Cox11-Trx (domain or fragment, Rhodobacter sphaeroides, UniProt P56940 32-191, looked up)
chain: NWFCRVTGFAGTTAVATEAPAEVLDRTVKVRFDASREAGMPWEFRPLQREMKLKIGETGLAFYEAYNPTDRTVAGTASYNVTPDAAGGYFAEIACFCFTEQVLAPGERVEMPVTFYVDPAIIDDPDGRYVRQITLSYTFHETALTEEQAALAAESATDVN
stoichiometry N [3]: 4

B8: C128A Cox11-Trx (domain or fragment, Rhodobacter sphaeroides, UniProt P56940 32-191, looked up)
chain: NWFCRVTGFAGTTAVATEAPAEVLDRTVKVRFDASREAGMPWEFRPLQREMKLKIGETGLAFYEAYNPTDRTVAGTASYNVTPDAAGGYFAKIACFAFTEQVLAPGERVEMPVTFYVDPAIIDDPDGRYVRQITLSYTFHETALTEEQAALAAESATDVN
stoichiometry N [3]: 4

B9: F127Y Cox11-Trx (domain or fragment, Rhodobacter sphaeroides, UniProt P56940 32-191, looked up)
chain: NWFCRVTGFAGTTAVATEAPAEVLDRTVKVRFDASREAGMPWEFRPLQREMKLKIGETGLAFYEAYNPTDRTVAGTASYNVTPDAAGGYFAKIACYCFTEQVLAPGERVEMPVTFYVDPAIIDDPDGRYVRQITLSYTFHETALTEEQAALAAESATDVN
stoichiometry N [3]: 4

B10: K123R Cox11-Trx (domain or fragment, Rhodobacter sphaeroides, UniProt P56940 32-191, looked up)
chain: NWFCRVTGFAGTTAVATEAPAEVLDRTVKVRFDASREAGMPWEFRPLQREMKLKIGETGLAFYEAYNPTDRTVAGTASYNVTPDAAGGYFARIACFCFTEQVLAPGERVEMPVTFYVDPAIIDDPDGRYVRQITLSYTFHETALTEEQAALAAESATDVN
stoichiometry N [3]: 4

B11: F127I Cox11-Trx (domain or fragment, Rhodobacter sphaeroides, UniProt P56940 32-191, looked up)
chain: NWFCRVTGFAGTTAVATEAPAEVLDRTVKVRFDASREAGMPWEFRPLQREMKLKIGETGLAFYEAYNPTDRTVAGTASYNVTPDAAGGYFAKIACICFTEQVLAPGERVEMPVTFYVDPAIIDDPDGRYVRQITLSYTFHETALTEEQAALAAESATDVN
stoichiometry N [3]: 4

B12: C126A-C128A Cox11-Trx (domain or fragment, Rhodobacter sphaeroides, UniProt P56940 32-191, looked up)
chain: NWFCRVTGFAGTTAVATEAPAEVLDRTVKVRFDASREAGMPWEFRPLQREMKLKIGETGLAFYEAYNPTDRTVAGTASYNVTPDAAGGYFAKIAAFAFTEQVLAPGERVEMPVTFYVDPAIIDDPDGRYVRQITLSYTFHETALTEEQAALAAESATDVN
stoichiometry N [3]: 4

B13: Y110E Cox11-Trx (domain or fragment, Rhodobacter sphaeroides, UniProt P56940 32-191, looked up)
chain: NWFCRVTGFAGTTAVATEAPAEVLDRTVKVRFDASREAGMPWEFRPLQREMKLKIGETGLAFYEAYNPTDRTVAGTASENVTPDAAGGYFAKIACFCFTEQVLAPGERVEMPVTFYVDPAIIDDPDGRYVRQITLSYTFHETALTEEQAALAAESATDVN
stoichiometry N [2]: 4

B14: Y110R Cox11-Trx (domain or fragment, Rhodobacter sphaeroides, UniProt P56940 32-191, looked up)
chain: NWFCRVTGFAGTTAVATEAPAEVLDRTVKVRFDASREAGMPWEFRPLQREMKLKIGETGLAFYEAYNPTDRTVAGTASRNVTPDAAGGYFAKIACFCFTEQVLAPGERVEMPVTFYVDPAIIDDPDGRYVRQITLSYTFHETALTEEQAALAAESATDVN
stoichiometry N [2]: 4

B15: K123L Cox11-Trx (domain or fragment, Rhodobacter sphaeroides, UniProt P56940 32-191, looked up)
chain: NWFCRVTGFAGTTAVATEAPAEVLDRTVKVRFDASREAGMPWEFRPLQREMKLKIGETGLAFYEAYNPTDRTVAGTASYNVTPDAAGGYFALIACFCFTEQVLAPGERVEMPVTFYVDPAIIDDPDGRYVRQITLSYTFHETALTEEQAALAAESATDVN
stoichiometry N [2]: 2
stoichiometry N [3]: 4

B16: Cox11 domain of R. sphaeroides Cox11-Trx after cleavage from Trx (domain or fragment, Rhodobacter sphaeroides, UniProt P56940 32-191, looked up)
chain: NWFCRVTGFAGTTAVATEAPAEVLDRTVKVRFDASREAGMPWEFRPLQREMKLKIGETGLAFYEAYNPTDRTVAGTASYNVTPDAAGGYFAKIACFCFTEQVLAPGERVEMPVTFYVDPAIIDDPDGRYVRQITLSYTFHETALTEEQAALAAESATDVN
stoichiometry N [2]: 4
